From article doi:10.1101/2020.01.15.908418
Like-named read-outs stand apart in the source and are kept apart here.

Experiments:
[1] = target: tropomyosin of murine cardiac thin filaments (mouse (endogenous in murine ventricular myocardium)) (UniProt P58771); experiment: cryo-EM structure
[2] = target: tropomyosin of murine cardiac thin filaments (mouse (endogenous in murine ventricular myocardium)) (UniProt P58771); experiment: cryo-EM structure; remark: listed apart in the source

Work on “tropomyosin of murine cardiac thin filaments (from UniProt P58771 1-284) (natural protein)” yielded a stoichiometry N [1] of 2 and a stoichiometry N [2] of 2.
